Each block holds one binder with its values, some of them ahead of it.
Tests used:
[1] = biological target: T1, human melanocortin-3 receptor (human, UniProt P41968 1-323); test: inhibition of 125I-NDP-α-MSH binding to membranes of cells expressing human MC3R
T1 construct: whole, on cells; Assayed as membranes prepared from stably expressing cells; also called hMC3R; MC3R
Procedure: (§1) Binding assays were done in the same manner as described in Fong et al., 1997, Biochem. Biophys. Res. Comm. 237:629–631. Binding assays were carried out using membranes prepared from L cells or CHO cells stably expressing human MC3R, MC4R or MC5R. […] The above mixture in binding buffer (50 mM Tris, 2 mM CaCl_2, 1 mM MgCl_2, 5 mM KCl, pH 7.2) was incubated at room temperature for 2 hours, followed by filtration through GFC paper. The bound ligand was quantitated in a γ counter. IC$50$ values were calculated as previously described (Fong et al., 1996, Mol. Pharmacol. 50:1605–1611).

[2] = biological target: T2, human melanocortin-4 receptor (human, UniProt P32245 1-332); test: inhibition of 125I-NDP-α-MSH binding to membranes of cells expressing human MC4R
T2 construct: whole, on cells; Assayed as membranes prepared from stably expressing cells; also called hMC4R; MC4R
T2 sequence (P32245 whole entry): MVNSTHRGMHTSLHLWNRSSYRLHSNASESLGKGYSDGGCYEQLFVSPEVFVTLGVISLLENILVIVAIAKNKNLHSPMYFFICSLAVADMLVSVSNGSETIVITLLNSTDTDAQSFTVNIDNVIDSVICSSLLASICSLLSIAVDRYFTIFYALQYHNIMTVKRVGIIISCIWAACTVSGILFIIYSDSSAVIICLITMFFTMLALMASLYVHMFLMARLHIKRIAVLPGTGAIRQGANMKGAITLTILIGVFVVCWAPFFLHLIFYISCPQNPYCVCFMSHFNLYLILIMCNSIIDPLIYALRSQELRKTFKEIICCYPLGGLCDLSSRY
Procedure: as §1

T1 sequence (P41968 whole entry): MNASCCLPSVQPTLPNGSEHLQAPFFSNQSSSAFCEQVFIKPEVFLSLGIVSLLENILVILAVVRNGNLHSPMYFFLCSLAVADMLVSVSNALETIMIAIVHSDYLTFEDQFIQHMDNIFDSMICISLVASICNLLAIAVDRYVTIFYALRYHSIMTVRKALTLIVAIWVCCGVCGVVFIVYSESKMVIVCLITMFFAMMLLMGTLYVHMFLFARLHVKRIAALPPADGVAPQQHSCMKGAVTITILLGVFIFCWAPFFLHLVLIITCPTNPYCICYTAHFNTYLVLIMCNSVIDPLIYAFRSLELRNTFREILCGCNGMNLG

IC50 [1]: 1.9 nM | IC50 [2]: 1.4 nM
B1: c-ART-b (ligand)
chain: AQMGLALQDREPRSSRRCVRLHESCLGQQVPCCDPCATCYCRFFNAFCYCRKLGTAMNPCSRTLVPRGSGSELGTKLGPEQKLISEEDLNSAVDHHHHHH
notes: Secreted into the culture medium of transfected COS-7 cells and used as concentrated medium; also called ART polypeptide

IC50 [1]: 1 nM | IC50 [2]: 0.5 nM
B2: full-length human ART protein (ligand)
chain: AQMGLAPMEGIRRPDQALLPELPGLGLRAPLKKTNAEQAEEDLLQEAQALAEVLDLQDREPRSSRRCVRLHESCLGQQVPCCDPCATCYCRFFNAFCYCRKLGTAMNPCSRTLVPRGSGSELGTKLGPEQKLISEEDLNSAVDHHHHHH
notes: also called full length ART; full-length ART protein
